Entries after “also recorded” stand apart in the source; their conditions may differ.
What was measured:
DRB1*0101 (DR1) = DRB1*0101 (DR1) (Homo sapiens, UniProt P01903+P01911, A100R/D57E/F55L/F60I/F76Y/I96L/L162R/M171V/P40L/Q125E/R42F/V115G/Y59C); type: binding
DRB1*0301 (DR3) = DRB1*0301 (DR3) (Homo sapiens, UniProt P01903+P01911, A100K/A102G/A103R/A169T/F55Y/I96L/K41T/L162R/M171V/P40S/Q125H/Q178H/Q39Y/R42S/S66N/T106N/T262R/W38E/Y61H); type: binding
DRB1*0701 (DR7) = DRB1*0701 (DR7) (Homo sapiens, UniProt P01903+P01911, A100R/A102G/A103Q/D57E/D86V/E43K/F76Y/K127E/L162R/M171V/P40G/Q125H/Q99D/R33Q/R42Y/R54Q/S133A/S66F/T210M/V115G/Y107V/Y59L/Y89S); type: binding
DRB1*0401 (DR4) = DRB1*0401 (DR4) (Homo sapiens, UniProt P01903+P01911, A100K/A169T/F76Y/I96L/K127E/L162R/M171V/N62H/P40V/Q125Y/R42H/S133A/S149N/S66Y/V115G/V209L/W38E); type: binding
HLA-DR molecules = type: binding, human
DRB1*1501 (DR15) = DRB1*1501 (DR15) (Homo sapiens, UniProt P01903+P01911); type: binding
[1] = test system: CD4^+ T cells of HLA class II transgenic mice; type: cell-based
DRB1*1101 (DR11) = DRB1*1101 (DR11) (Homo sapiens, UniProt P01903+P01911, A100R/A169T/A87E/I96F/K41T/L162R/M171V/P40S/Q125H/Q178H/Q39Y/Q99D/R42S/S66Y/T262R/V115G/W38E); type: binding
DRB1*1301 (DR13) = DRB1*1301 (DR13) (Homo sapiens, UniProt P01903+P01911, A100E/A169T/K41T/L162R/M171V/P40S/Q125H/Q178H/Q39Y/Q99D/R42S/S66N/T262R/W38E/Y61H); type: binding

Row | Sequence | Relative binding affinity of peptide to HLA-DR molecules, DR1 (DRB1*0101 (DR1)) | Relative binding affinity of peptide to HLA-DR molecules, DR3 (DRB1*0301 (DR3)) | Relative binding affinity of peptide to HLA-DR molecules, DR7 (DRB1*0701 (DR7)) | Relative binding affinity of peptide to HLA-DR molecules, DR4 (DRB1*0401 (DR4)) | Binding across all HLA-DR alleles assayed (HLA-DR molecules) | Relative binding affinity of peptide to HLA-DR molecules, DR15 (DRB1*1501 (DR15)) | HLA-restriction based on CD4 T cell response class II HLA transgenics after priming with LF [1] | Relative binding affinity of peptide to HLA-DR molecules, DR11 (DRB1*1101 (DR11)) | Relative binding affinity of peptide to HLA-DR molecules, DR13 (DRB1*1301 (DR13)) | CD4 T cell response in LF immunized HLA transgenics [1] | Strong relative binding affinity of peptide to HLA-DR molecules, DR3 (DRB1*0301 (DR3)) | Strong relative binding affinity of peptide to HLA-DR molecules, DR7 (DRB1*0701 (DR7)) | Strong relative binding affinity of peptide to HLA-DR molecules, DR15 (DRB1*1501 (DR15)) | Strong relative binding affinity of peptide to HLA-DR molecules, DR13 (DRB1*1301 (DR13)) | Strong relative binding affinity of peptide to HLA-DR molecules, DR1 (DRB1*0101 (DR1)) | Strong relative binding affinity of peptide to HLA-DR molecules, DR4 (DRB1*0401 (DR4)) | Binding to HLA-DR1, DR4 and DR15 (HLA-DR molecules) | Strong relative binding affinity of peptide to HLA-DR molecules, DR11 (DRB1*1101 (DR11))
1 | AKAFAYYIEPQHRDVLQLYA | 115 | 39 | 97 | 51 | strong to moderate binding across all seven HLA-DR alleles | 8 | DR1 | 4 | 9 |  |  |  |  |  |  |  |  | 
2 | EAQLNINQEWNKALGLPKYT | 104 | 173 | 68 | 43 | strong to moderate binding across all seven HLA-DR alleles | 1 | DR15, DQ8 | 100 | 17 | DQB1*0302 restricted |  |  |  |  |  |  |  | 
3 | EQYTHQDEIYEQVHSKGLYV | 1 | 245 | 0 | 237 | strong to moderate binding across all seven HLA-DR alleles | 13 | DRI | 35 | 15 | immunodominant epitope in both HLA-DR1 and HLA-DR15 transgenics |  |  |  |  |  |  |  | 
4 | EYIRIDAKVVPKSKIDTKIQ | 3 | 1 | 12 | 15 | strong to moderate binding across all seven HLA-DR alleles | 156 | DRI | 21 | 24 | elicited a T cell response in a single HLA transgenic strain |  |  |  |  |  |  |  | 
5 | HQSIGSTLYNKIYLYENMNI | 115 | 1 | 3 | 55 | strong to moderate binding across all seven HLA-DR alleles | 0.02 | DR1, DR4, DR15,; also recorded: DQ8, DQ6 | 44 | 5 | recognised by all LF immunized HLA transgenics; also recorded: immunogenic in all three HLA-DR transgenic strains | + (key: +: Strong binding affinity was defined in this study as a relative activity <10) | + (key: +: Strong binding affinity was defined in this study as a relative activity <10) | + (key: +: Strong binding affinity was defined in this study as a relative activity <10) | + (key: +: Strong binding affinity was defined in this study as a relative activity <10) |  |  |  | 
6 | LENGKLILQRNIGLEIKDVQI | 0 | 4 | 1 | 7 |  | 0.04 | DR1, DR4, DR15 | 3 | 9 | identified in HLA-DR1, HLA-DR4 and HLA-DR15 transgenic lines; also recorded: immunogenic in all three HLA-DR transgenic strains | + (key: +: Strong binding affinity was defined in this study as a relative activity <10) | + (key: +: Strong binding affinity was defined in this study as a relative activity <10) | + (key: +: Strong binding affinity was defined in this study as a relative activity <10) | + (key: +: Strong binding affinity was defined in this study as a relative activity <10) | + (key: +: Strong binding affinity was defined in this study as a relative activity <10) | + (key: +: Strong binding affinity was defined in this study as a relative activity <10) | strong binders to all three HLA-DR alleles | + (key: +: Strong binding affinity was defined in this study as a relative activity <10)
7 | NKALGLPKYTKLITFNVHNR | 0 | 250 | 4 | 10 | strong to moderate binding across all seven HLA-DR alleles | 3 | DR1 | 2 | 19 |  |  |  |  |  |  |  |  | 
8 | YVYAKEGYEPVLVIQSSEDY | 771 | >238 | 1182 | 555 |  | >262 | DR1, DQ8 | 14 | 3 |  |  |  |  |  |  |  |  | 
9 | YYEIGKILSRDILSKINQPY | 69 | 3 | 4 | 19 |  | 43 | DQ8 | 0.4 | 5 |  |  |  |  |  |  |  |  | 

— patent US20170058005A1 (priority 2014, published 2017)
